Values of other authors as cited in PMC2978668.
Where two headings read alike, the source gives them in different places. Values belong to the substance of their own block, whether it stands above or below them.

Legend:
[1] = target: fibronectin (UniProt P02751)
[2] = target: fibulin-2 (UniProt P98095)
[3] = target: agrin (muscle) (UniProt O00468)
[4] = target: α2-laminin (UniProt P24043)
[5] = target: α4-laminin (UniProt Q16363)
[6] = target: perlecan LG (UniProt P98160)
[7] = target: α1-laminin (UniProt P25391)
[8] = target: α5-laminin (UniProt O15230)
[9] = target: perlecan domain IV (UniProt P98160)
[10] = target: perlecan domain IV (UniProt P98160); remark: listed apart in the source

Sequence of α-dystroglycan (Q14118 30-653): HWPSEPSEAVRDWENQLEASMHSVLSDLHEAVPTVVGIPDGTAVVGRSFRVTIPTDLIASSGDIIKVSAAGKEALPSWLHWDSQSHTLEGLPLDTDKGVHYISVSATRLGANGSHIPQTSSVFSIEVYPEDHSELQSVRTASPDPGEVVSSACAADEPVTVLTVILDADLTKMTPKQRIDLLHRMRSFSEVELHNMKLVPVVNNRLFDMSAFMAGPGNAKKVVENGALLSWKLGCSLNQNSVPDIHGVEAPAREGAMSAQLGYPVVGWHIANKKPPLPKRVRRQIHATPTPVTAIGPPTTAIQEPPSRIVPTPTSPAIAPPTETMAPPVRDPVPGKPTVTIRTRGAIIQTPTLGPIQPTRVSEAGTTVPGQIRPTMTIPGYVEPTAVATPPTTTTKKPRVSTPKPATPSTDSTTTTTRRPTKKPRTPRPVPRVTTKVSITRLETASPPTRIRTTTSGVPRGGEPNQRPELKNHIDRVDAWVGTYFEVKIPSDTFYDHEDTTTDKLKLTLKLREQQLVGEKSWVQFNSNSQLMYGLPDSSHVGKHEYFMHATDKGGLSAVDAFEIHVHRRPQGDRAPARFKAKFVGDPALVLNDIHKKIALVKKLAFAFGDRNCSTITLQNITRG
Sequence of perlecan domain IV (UniProt P98160) (P98160 1677-3686): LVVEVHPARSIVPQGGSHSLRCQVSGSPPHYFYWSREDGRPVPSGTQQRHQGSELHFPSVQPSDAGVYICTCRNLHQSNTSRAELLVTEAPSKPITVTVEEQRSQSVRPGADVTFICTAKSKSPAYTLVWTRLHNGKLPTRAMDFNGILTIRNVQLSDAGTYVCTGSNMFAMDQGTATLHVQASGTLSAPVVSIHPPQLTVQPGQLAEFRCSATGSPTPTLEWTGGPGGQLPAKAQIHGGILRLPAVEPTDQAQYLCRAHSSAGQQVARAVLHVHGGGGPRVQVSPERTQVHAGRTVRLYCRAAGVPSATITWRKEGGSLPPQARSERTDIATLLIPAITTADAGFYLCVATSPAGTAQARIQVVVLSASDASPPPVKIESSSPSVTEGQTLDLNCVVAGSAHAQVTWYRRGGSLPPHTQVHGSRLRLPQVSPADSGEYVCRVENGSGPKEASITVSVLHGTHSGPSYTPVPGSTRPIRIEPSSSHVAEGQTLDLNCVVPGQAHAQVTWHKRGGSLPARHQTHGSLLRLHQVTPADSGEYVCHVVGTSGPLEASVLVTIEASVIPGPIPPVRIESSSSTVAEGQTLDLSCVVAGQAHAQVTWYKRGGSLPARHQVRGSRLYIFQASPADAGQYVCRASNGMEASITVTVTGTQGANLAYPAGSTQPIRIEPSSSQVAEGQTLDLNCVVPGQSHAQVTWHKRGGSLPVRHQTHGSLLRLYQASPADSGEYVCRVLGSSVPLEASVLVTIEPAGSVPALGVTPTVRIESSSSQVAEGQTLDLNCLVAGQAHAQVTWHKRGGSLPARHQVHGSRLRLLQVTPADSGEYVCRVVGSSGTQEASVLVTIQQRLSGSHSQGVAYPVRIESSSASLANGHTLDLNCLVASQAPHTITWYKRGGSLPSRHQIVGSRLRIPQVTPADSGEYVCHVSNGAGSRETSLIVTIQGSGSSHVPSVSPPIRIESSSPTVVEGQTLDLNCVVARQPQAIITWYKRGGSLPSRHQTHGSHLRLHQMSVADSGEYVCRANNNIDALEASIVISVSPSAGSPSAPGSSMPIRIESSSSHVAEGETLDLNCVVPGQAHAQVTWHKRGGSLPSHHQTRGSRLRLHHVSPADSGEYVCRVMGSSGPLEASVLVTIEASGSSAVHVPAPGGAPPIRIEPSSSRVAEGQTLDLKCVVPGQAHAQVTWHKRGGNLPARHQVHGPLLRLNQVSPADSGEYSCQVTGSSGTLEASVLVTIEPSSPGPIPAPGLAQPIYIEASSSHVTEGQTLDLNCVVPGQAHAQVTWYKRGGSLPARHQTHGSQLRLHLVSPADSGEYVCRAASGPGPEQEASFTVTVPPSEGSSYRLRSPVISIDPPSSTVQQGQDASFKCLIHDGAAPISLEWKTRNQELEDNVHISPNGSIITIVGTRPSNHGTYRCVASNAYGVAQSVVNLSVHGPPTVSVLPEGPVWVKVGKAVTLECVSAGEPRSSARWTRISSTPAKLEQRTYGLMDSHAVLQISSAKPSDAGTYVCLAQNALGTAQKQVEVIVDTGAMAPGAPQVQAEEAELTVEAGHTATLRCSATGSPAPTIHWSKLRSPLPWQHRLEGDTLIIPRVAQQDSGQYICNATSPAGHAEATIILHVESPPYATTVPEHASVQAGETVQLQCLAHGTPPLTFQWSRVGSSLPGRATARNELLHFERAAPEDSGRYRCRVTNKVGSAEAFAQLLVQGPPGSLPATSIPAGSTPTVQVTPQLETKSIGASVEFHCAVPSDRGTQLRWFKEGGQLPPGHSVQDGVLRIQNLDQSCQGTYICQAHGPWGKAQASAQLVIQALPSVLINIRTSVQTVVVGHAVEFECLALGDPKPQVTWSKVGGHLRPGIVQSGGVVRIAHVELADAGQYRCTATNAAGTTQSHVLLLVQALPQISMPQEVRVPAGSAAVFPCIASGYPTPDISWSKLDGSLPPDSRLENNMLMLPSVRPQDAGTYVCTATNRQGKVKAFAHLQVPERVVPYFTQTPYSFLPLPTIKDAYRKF
Sequence of perlecan LG (P98160 3687-4391): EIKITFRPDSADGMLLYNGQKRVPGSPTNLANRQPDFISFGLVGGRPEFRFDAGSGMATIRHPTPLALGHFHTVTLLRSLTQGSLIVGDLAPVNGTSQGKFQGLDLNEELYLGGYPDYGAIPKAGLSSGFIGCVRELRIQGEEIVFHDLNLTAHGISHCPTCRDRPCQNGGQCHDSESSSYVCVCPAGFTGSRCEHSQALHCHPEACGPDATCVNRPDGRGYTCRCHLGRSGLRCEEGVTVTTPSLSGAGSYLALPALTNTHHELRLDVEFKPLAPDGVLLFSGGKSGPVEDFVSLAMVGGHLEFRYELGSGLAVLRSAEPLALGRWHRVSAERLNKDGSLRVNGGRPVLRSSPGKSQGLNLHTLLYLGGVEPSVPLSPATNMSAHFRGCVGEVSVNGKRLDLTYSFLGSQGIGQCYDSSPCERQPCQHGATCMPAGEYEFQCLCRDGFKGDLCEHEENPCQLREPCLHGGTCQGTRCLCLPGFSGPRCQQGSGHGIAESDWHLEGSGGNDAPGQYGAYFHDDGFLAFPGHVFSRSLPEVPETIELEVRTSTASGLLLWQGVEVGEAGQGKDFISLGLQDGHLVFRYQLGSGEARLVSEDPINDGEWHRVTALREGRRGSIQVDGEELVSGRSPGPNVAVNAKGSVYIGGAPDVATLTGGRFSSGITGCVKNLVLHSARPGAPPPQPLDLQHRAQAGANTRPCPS
Sequence of nidogen (P14543 29-1247): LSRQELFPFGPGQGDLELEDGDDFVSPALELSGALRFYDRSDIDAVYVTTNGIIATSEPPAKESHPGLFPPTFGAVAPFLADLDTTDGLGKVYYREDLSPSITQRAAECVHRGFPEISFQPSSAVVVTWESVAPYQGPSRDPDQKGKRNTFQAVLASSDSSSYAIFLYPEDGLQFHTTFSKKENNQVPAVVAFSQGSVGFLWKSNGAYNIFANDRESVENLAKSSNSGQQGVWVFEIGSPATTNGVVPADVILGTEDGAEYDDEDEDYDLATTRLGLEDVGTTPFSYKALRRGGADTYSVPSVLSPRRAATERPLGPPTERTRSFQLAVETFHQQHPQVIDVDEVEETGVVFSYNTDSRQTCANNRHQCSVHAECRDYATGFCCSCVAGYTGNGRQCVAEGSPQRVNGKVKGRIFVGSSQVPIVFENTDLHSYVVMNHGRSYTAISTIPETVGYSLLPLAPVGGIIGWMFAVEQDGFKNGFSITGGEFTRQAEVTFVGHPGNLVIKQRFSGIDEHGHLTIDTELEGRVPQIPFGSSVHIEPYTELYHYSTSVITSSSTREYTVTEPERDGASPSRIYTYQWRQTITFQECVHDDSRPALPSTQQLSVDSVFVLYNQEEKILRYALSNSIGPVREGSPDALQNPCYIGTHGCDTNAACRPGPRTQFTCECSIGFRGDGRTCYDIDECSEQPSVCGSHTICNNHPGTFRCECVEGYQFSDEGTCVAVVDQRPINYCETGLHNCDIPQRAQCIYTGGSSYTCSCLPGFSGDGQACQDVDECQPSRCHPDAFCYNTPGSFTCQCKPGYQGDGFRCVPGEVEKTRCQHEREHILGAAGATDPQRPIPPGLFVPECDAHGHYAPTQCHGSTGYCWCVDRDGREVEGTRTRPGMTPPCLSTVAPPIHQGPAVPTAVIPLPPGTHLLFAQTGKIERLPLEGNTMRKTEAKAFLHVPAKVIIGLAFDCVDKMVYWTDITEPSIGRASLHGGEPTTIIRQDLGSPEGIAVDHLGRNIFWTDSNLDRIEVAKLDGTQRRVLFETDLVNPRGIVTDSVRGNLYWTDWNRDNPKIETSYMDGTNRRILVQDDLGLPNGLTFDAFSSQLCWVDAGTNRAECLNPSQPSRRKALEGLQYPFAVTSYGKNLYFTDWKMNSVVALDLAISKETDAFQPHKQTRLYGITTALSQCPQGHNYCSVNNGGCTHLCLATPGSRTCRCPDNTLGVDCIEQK
Sequence of nidogen-1 G2 (P14543 430-667): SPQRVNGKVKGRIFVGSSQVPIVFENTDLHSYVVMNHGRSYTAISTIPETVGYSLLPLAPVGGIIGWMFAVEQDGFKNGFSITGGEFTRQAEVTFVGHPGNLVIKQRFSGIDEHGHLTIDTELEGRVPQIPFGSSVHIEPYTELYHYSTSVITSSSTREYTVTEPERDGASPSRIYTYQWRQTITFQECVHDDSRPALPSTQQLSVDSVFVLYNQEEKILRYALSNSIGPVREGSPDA
Sequence of perlecan domain IV (from UniProt P98160) (P98160 1677-3686): as the sequence (P98160 1677-3686) above

Substance: perlecan domain IV (from UniProt P98160)
Kd [1]: 10 nM

Substance: nidogen-1 G2 (from UniProt P14543)
Kd [9]: 10 nM

Substance: nidogen-2 (from UniProt Q14112)
Kd [10]: 10 nM

Second part, the substance after the results:

Kd [2]: < 0.5 nM
Substance: nidogen (from UniProt P14543)

Kd [3]: 2 nM
Kd [4]: 43 nM
Kd [5]: > 1000 nM
Kd [6]: 16 nM
Kd [7]: 20 nM
Kd [8]: 150 nM
Substance: α-dystroglycan (from UniProt Q14118)
